Test results reported in US5719021A, “Protein activation” (University of Medicine and Dentistry of New Jersey, dated 1998).
Where a chain is given by its changes, count along the chain named. Where two headings read alike, the source gives them in different places.

Key:
pro-subtilisin E = molecular target: T1, pro-subtilisin E (Bacillus subtilis, UniProt P04189); experiment: In vitro processing of denatured pro-subtilisin to active subtilisin by dialysis; assay type: biochemical; details: for Processing/conversion to active mature subtilisin: in vitro dialysis, e.g. 0.2M sodium phosphate pH 6.2
T1 construct: Pro-subtilisin consists of 352 amino acid residues; 77 residues for the amino-terminal pro-peptide plus 275 residues for the mature subtilisin; E. coli OmpA signal peptide (N); made in house; host or cells: E. coli (inclusion bodies)
T1 sequence (P04189 30-381 limits assumed): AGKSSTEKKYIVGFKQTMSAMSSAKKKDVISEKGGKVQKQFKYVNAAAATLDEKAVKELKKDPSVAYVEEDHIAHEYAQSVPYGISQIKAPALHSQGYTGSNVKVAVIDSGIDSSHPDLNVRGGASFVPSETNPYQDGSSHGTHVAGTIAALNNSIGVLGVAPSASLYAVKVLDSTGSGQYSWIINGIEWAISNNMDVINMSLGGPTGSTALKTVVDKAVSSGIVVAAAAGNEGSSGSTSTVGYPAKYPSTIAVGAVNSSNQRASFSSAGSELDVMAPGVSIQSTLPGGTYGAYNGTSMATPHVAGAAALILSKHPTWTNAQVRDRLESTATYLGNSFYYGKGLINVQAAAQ
Excerpt: Pro-subtilisin thus produced was solubilized in 6M guanidine-HCl and purified to homogeneity in the presence of 5M urea.
Its N-terminal amino acid sequence and the mobility in SDS-polyacrylamide gel electrophoresis were identical to those of authentic subtilisin.
It is interesting to note that the processing reaction to active subtilisin was independent of the pro-subtilisin concentration. Thus, the conversion is a first-order reaction.
The pro-subtilisin was in solution in a denaturant like guanidine-HCl or urea to prevent autoprocesssing to active subtitisin. For best results, the work was carried out with urea.
The method for activating the polypeptide comprises contacting it with the selected activating peptide. For pro-subtilisin E the efficiency of the conversion to active subtilisin E is independent of the pro-subtilisin concentration, indicating a first order reaction. The reaction is carried out in an appropriate buffer medium. […] At higher concentration, the ammonium sulfate appears to inhibit the proper folding of the polypeptide. When sulfate is used as the anion, there may be used as cations Na^+, K^+, and Li^+ or NH4^+ and equivalent others. Most efficient processing was obtained with 0.5M (NH4)2 SO4 in a 10 mM Tri-HCl buffer (at pH7.0), containing 1 mM CaCl2. Under these conditions, 1 mg of pro-subtilisin produced 89 U of subtilisin activity.

subtilisin E = molecular target: T2, subtilisin E (Bacillus subtilis, UniProt P04189); experiment: Competitive inhibition of subtilisin E by synthetic pro-peptides; assay type: biochemical; details: competitive inhibitor
T2 construct: 77 residues for the amino-terminal pro-peptide plus 275 residues for the mature subtilisin; made in house
T2 sequence (P04189 107-381): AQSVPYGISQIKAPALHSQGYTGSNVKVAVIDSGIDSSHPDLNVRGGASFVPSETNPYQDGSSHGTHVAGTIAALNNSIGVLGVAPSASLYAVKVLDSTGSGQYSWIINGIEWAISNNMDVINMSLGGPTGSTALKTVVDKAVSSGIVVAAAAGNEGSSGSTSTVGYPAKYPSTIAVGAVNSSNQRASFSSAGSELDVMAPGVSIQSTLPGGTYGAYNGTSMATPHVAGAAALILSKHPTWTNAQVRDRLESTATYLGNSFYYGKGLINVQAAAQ
Excerpt: 5. The synthetic pro-peptide is able to specifically bind to the active center of subtilisin.

denatured subtilisin E = molecular target: T3, denatured subtilisin E (Bacillus subtilis, UniProt P04189); experiment: Renaturation (intermolecular refolding) of denatured subtilisin E with exogenously added pro-peptide; assay type: biochemical
T3 construct: 77 residues for the amino-terminal pro-peptide plus 275 residues for the mature subtilisin; made in house
T3 sequence (P04189 107-381): T2 sequence (P04189 107-381)
Excerpt: The studies established that denatured subtilisin (without the pro-peptide)cannot be renatured to active subtilisin.
The pro-peptide of 77 residues for subtilisin E (see FIG. 1) was synthesized.
(§1) Other synthetic activating sequences were reacted with a selected polypeptide, in this case subtilisin, as described by Ohta et al. in Molecular Microbiology, 5(6), 1507-1510 (1991), which is incorporated herein by reference (and cofiled herewith). Active subtilisin was obtained.
(§2) The concentration of the activating peptide is preferably in a molar ratio of one of the activating protein to the polypeptide to be activated. At higher and lower concentration than 1 to 1, the renaturation yield was not as high; when the ratio exceeded 1, inhibition was observed. The activating peptide appears to act an inhibitor of the activated polypeptide.
(§3) Different concentrations of the different synthetic peptides were used a shown in the above-cited reference. The mixture of synthetic and polypeptide was dialyzed against 10 mM sodium phosphate, pH 7.0, that also contained 0.5M (NH4)2 SO4, 2 mM CaCl2 and 10 μm of 3,5-bis-trifluoromethylbenzeneboronic acid (BTFBA), a serine protease inhibitor.

[1] = molecular target: T4, subtilisin E (Bacillus subtilis); experiment: competitive inhibition of enzyme activity
T4 chain: T2 sequence (P04189 107-381) with A85S

[2] = molecular target: T5, denatured subtilisin BPN' (Bacillus amyloliquefaciens, UniProt P00782); experiment: Renaturation of denatured subtilisin BPN' with exogenously added pro-peptide; assay type: biochemical; details: for Efficiency of renaturation of denatured subtilisin BPN' relative to the pro-77-mer: relative to pro-77-mer
T5 sequence (P00782 108-382): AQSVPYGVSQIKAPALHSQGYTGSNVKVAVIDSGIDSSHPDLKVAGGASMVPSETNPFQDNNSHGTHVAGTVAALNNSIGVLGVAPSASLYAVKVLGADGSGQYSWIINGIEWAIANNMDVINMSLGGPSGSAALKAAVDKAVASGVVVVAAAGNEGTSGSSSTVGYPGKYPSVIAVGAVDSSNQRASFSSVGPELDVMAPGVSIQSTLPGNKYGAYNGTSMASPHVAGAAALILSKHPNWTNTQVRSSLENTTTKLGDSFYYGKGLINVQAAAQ
Excerpt: Similarly, pro-peptides corresponding to -1 to -77, -1 to -68 and -1 to -63 for subtilisin BPN' were synthesized (See FIG. 1).
as §1, §2, §3

subtilisin BPN' = molecular target: T6, subtilisin BPN' (Bacillus amyloliquefaciens); experiment: competitive inhibition of enzyme activity
T6 chain: T5 sequence (P00782 108-382)

subtilisin Carlsberg = molecular target: T7, subtilisin Carlsberg (Bacillus licheniformis, UniProt P00780); experiment: Renaturation of acid-denatured subtilisin Carlsberg with exogenously added pro-peptide; assay type: biochemical
T7 construct: denatured subtilisin (without the pro-peptide)cannot be renatured to active subtilisin
Excerpt: This pro-peptide variant was effective even though there are quite a number of amino acid substitutions in both subtilisins BPN' and Carlsberg when compared with subtilisin E (See FIG. 1).

## O=S(=O)(F)Cc1ccccc1 [phenylmethanesulfonyl fluoride, reference compound]
pro-subtilisin E
  Inhibition of the processing of pro-subtilisin to active subtilisin: unable to inhibit

## synthetic pro-peptide of -1 to -77 for subtilisin E: synthesized pro-peptide of 77 residues (-1 to -77) for subtilisin E
Subtilisin E; listed as synthetic pro-peptide
  Ki: 540 nM
Subtilisin E; read-out: Ki as competitive inhibitor of subtilisin E
  Ki: ≤ 540 nM
Denatured subtilisin E
  Refolding/renaturation of denatured subtilisin E to active enzyme: able to intermolecularly complement the refolding

B1: synthetic pro-peptide of -1 to -77 for subtilisin E (peptide)
peptide: AGKSSTEKKYIVGFKQTMSAMSSAKKKDVISEKGGKVQKQFKYVNAAAATLDEKAVKELKKDPSVAYVEEDHIAHEY
modifications: not checked
[1]
  Ki: < 540 nM

B2: pro-77-mer (from -1 to -77) for subtilisin BPN' (peptide)
peptide: B1 peptide with S5N, T6G, A20T, S23A, N45D, A48S, D52N, I73V, E76A
[2]
  Effectiveness for the renaturation of denatured subtilisin BPN': most effective
Subtilisin BPN'
  Ki: 380 nM

B3: pro-68-mer (from -1 to -68) for subtilisin BPN' (peptide)
peptide: YIVGFKQTMSTMSAAKKKDVISEKGGKVQKQFKYVDAASATLNEKAVKELKKDPSVAYVEEDHVAHAY
[2]
  Efficiency of renaturation of denatured subtilisin BPN' relative to the pro-77-mer: 30-40%
Subtilisin BPN'
  Ki: 760 nM

B4: pro-63-mer (from -1 to -63) for subtilisin BPN' (peptide)
peptide: KQTMSTMSAAKKKDVISEKGGKVQKQFKYVDAASATLNEKAVKELKKDPSVAYVEEDHVAHAY
[2]
  Efficiency of renaturation of denatured subtilisin BPN' relative to the pro-77-mer: 30-40%
Subtilisin BPN'
  Ki: 790 nM

B5: pro-subtilisin E: pro-subtilisin produced in E. coli as inclusion bodies, solubilized in 6M guanidine-HCl and purified in 5M urea (protein)
chain: T1 sequence (P04189 30-381 limits assumed) with A162S
pro-subtilisin E; 0.5M (NH4)2SO4 in 10 mM Tris-HCl pH 7.0, 1 mM CaCl2
  Subtilisin activity produced from 1 mg of pro-subtilisin: 89 U
pro-subtilisin E; calculated from 89 U versus 470 U
  Conversion efficiency of pro-subtilisin to active subtilisin: approximately 20%
pro-subtilisin E; estimated
  Theoretical maximum activity for 1 mg of pro-subtilisin E: 470 U
pro-subtilisin E
  Processing/conversion to active mature subtilisin: converted to active subtilisin

B6: processed subtilisin: active subtilisin obtained by in vitro processing of pro-subtilisin E (protein, UniProt P04189 107-381, looked up)
Subtilisin E: T2 sequence (P04189 107-381)
pro-subtilisin E
  Specific activity of processed subtilisin relative to authentic subtilisin E: approximately half

B7: Streptomyces subtilisin inhibitor: inhibitor tested on processing of pro-subtilisin to active subtilisin (protein)
chain: DAPSALYAPSALVLTVGKGVSATTAAPERAVTLTCAPGPSGTHPAAGSACADLAAVGGDLNALTRGEDVMCPMVYDPVLLTVDGVWQGKRVSYERVFSNECEMNAHGSSVFAF
pro-subtilisin E
  Inhibition of the processing of pro-subtilisin to active subtilisin: unable to inhibit

B8: pro-subtilisin E with the Asp32 to Asn active site mutation: pro-subtilisin E with active site mutation Asp32 to Asn, used as exogenous pro-peptide source (protein, UniProt P04189 30-381, looked up, variant D32N)
pro-form: T1 sequence (P04189 30-381 limits assumed) with D109N
modifications: pro-form
[2]; acid-denatured
  Renaturation of acid-denatured subtilisin BPN': able to renature
Denatured subtilisin E
  Refolding/renaturation of denatured subtilisin E to active enzyme: active subtilisin is formed
pro-subtilisin E; listed as pro-subtilisin with an active site mutation (Asp32 to Asn)
  Processing/conversion to active mature subtilisin: cannot be autoprocessed
pro-subtilisin E; listed as pro-subtilisin with an active-site mutation (aspartic acid at position 32 to asp)
  Processing/conversion to active mature subtilisin: unable to be processed
Subtilisin Carlsberg
  Renaturation of acid-denatured subtilisin Carlsberg: able to renature
